# Data: article PMC4298689 (The Journal of Cell Biology, 2015)
# Non-standard residues stand in square brackets, D forms with d. No end group written: not given here. pT = C[C@@H](OP(=O)(O)O)[C@H](N)C(=O)O
# T1: His6-tagged recombinant Mis12C containing Dsn1-WT (human, UniProt Q9H410 1-356; Q96IY1 1-258; Q9H081 1-205; Q6P1K2 1-205)
# T1 sequence (looked up) 1: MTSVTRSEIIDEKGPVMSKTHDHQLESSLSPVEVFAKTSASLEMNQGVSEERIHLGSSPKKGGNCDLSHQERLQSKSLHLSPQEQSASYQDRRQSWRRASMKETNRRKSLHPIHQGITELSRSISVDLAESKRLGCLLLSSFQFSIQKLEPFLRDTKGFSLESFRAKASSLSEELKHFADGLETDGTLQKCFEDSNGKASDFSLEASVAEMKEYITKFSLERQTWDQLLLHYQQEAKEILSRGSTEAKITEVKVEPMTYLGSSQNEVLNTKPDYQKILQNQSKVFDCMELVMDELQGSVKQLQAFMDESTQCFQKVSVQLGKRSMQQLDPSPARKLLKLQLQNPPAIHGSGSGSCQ
# T1 sequence (looked up) 2: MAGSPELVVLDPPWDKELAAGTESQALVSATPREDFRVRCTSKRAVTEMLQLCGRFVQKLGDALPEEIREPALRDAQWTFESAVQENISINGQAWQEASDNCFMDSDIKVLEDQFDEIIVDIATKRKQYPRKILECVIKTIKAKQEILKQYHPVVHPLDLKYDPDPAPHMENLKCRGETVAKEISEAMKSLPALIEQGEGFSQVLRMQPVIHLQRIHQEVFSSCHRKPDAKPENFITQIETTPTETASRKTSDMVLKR
# T1 sequence (looked up) 3: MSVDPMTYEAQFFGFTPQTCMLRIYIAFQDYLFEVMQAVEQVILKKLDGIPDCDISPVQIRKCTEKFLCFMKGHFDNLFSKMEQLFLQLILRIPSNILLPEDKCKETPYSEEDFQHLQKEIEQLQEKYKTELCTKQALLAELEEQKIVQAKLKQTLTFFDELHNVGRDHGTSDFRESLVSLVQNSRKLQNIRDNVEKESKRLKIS
# T1 sequence (looked up) 4: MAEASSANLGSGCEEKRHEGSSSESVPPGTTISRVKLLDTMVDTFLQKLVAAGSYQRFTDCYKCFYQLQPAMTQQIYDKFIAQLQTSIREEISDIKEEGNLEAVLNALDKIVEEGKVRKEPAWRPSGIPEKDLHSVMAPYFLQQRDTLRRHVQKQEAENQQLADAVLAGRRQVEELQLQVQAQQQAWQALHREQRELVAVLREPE
# B1: Spc24–Spc25 complex (Spc24^92–197, Spc25^70–224) (complex, human)
# chain 1: EEDTRLKASLLQLTRELEELKEIEADLERQEKEVDEDTTVTIPSAVYVAQLYHQVSKIEWDYECEPGMVKGIHHGPSVAQPIHLDSTQLSRKFISDYLWSLVDTEW
# chain 2: RQNKLIQEKKDNLLKLIAEVKGKKQELEVLTANIQDLKEEYSRKKETISTANKANAERLKRLQKSADLYKDRLGLEIRKIYGEKLQFIFTNIDPKNPESPFMFSLHLNEARDYEVSDSAPHLEGLAEFQENVRKTNNFSAFLANVRKAFTATVYN
# Assays:
# [1] = molecular target: CENP-C (UniProt Q03188); experiment: anti-GFP IP, immunoblot; conditions: reference: Dsn1-WT-GFP; sites S100,S109
# [2] = molecular target: T1, His6-tagged recombinant Mis12C …; experiment: pull-down
# [3] = molecular target: B1; experiment: pull-down
# [4] = molecular target: fluorescein-labeled CENP-C^1–28 peptide (human, 5FAM (fluorescein) on the N-terminus); experiment: MST
molecule,measurement,setting,value
Dsn1 (from UniProt Q9H410) Dsn1-S100A/S109A-GFP,binding against the reference,[1],weaker
B1,binding result,[2],binds
"HLEEQ[pT]PRTLLKNILLTAPESSILM (peptide, UniProt Q96BT3 80-104, looked up) [synthetic phospho-T85 CENP-T peptide containing residues 80–104]",binding result,[3],binds
Recombinant Mis12C-WT (construct not told for this experiment) (complex) chain 1: MTSVTRSEIIDEKGPVMSKTHDHQLESSLSPVEVFAKTSASLEMNQGVSEERIHLGSSPKKGGNCDLSHQERLQSKSLHLSPQEQSASYQDRRQSWRRASMKETNRRKSLHPIHQGITELSRSISVDLAESKRLGCLLLSSFQFSIQKLEPFLRDTKGFSLESFRAKASSLSEELKHFADGLETDGTLQKCFEDSNGKASDFSLEASVAEMKEYITKFSLERQTWDQLLLHYQQEAKEILSRGSTEAKITEVKVEPMTYLGSSQNEVLNTKPDYQKILQNQSKVFDCMELVMDELQGSVKQLQAFMDESTQCFQKVSVQLGKRSMQQLDPSPARKLLKLQLQNPPAIHGSGSGSCQ chain 2: MAGSPELVVLDPPWDKELAAGTESQALVSATPREDFRVRCTSKRAVTEMLQLCGRFVQKLGDALPEEIREPALRDAQWTFESAVQENISINGQAWQEASDNCFMDSDIKVLEDQFDEIIVDIATKRKQYPRKILECVIKTIKAKQEILKQYHPVVHPLDLKYDPDPAPHMENLKCRGETVAKEISEAMKSLPALIEQGEGFSQVLRMQPVIHLQRIHQEVFSSCHRKPDAKPENFITQIETTPTETASRKTSDMVLKR chain 3: MSVDPMTYEAQFFGFTPQTCMLRIYIAFQDYLFEVMQAVEQVILKKLDGIPDCDISPVQIRKCTEKFLCFMKGHFDNLFSKMEQLFLQLILRIPSNILLPEDKCKETPYSEEDFQHLQKEIEQLQEKYKTELCTKQALLAELEEQKIVQAKLKQTLTFFDELHNVGRDHGTSDFRESLVSLVQNSRKLQNIRDNVEKESKRLKIS chain 4: MAEASSANLGSGCEEKRHEGSSSESVPPGTTISRVKLLDTMVDTFLQKLVAAGSYQRFTDCYKCFYQLQPAMTQQIYDKFIAQLQTSIREEISDIKEEGNLEAVLNALDKIVEEGKVRKEPAWRPSGIPEKDLHSVMAPYFLQQRDTLRRHVQKQEAENQQLADAVLAGRRQVEELQLQVQAQQQAWQALHREQRELVAVLREPE,Kd,[4],2100 ± 400 nM
